Assay results taken from patent US20190328837A1 (Stanford University, published 2019).
Values belong to the binder of their own block, whether it stands above or below them.

Key:
wild-type CNTFR-HIS [1] = target: T1, wild-type CNTFR-HIS (human, UniProt P26992 23-342); experiment: flow cytometry, yeast-displayed CLCF1 construct, soluble CNTFR-HIS titrated, apparent Kd from a four-parameter fit
T1 construct: also called wtCNTFR-HIS; HIS tagged CNTFR; not shown: HIS tag
T1 sequence: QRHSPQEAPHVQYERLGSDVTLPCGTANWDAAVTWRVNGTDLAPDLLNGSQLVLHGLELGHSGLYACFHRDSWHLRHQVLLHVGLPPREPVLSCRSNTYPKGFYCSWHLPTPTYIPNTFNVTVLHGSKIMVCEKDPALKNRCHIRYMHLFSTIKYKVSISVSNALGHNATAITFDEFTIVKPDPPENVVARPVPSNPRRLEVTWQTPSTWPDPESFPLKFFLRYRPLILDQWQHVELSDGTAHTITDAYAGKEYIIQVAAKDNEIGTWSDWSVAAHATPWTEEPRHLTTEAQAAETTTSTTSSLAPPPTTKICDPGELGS
Description: (§1) Using equilibrium binding conditions and screened by flow cytometric sorting (FACS), high throughput screening of the CLCF1 library using wtCNTFR-HIS was performed to enrich variants showing increased CLCF1 binding. Expression signal was used to normalize CNTFR binding to distinguish high expressers from high affinity binders. Screening stringency was increased throughout sorting by decreasing the concentration of wtCNTFR-HIS incubated with the library. […] Thus a variant containing the three mutations (named FRR-CLCF1) was chosen for further characterization (FIG. 7).
(§2) Yeast displaying CLCF1 constructs were incubated with varying concentrations of CNTFR for 12 h at room temperature to reach equilibrium binding. This was followed by washing with BPBS and resuspension in PBSA with 1:500 ratio of chicken anti-c-Myc (Invitrogen) for 30 min at 4 C. Yeast were then washed and pelleted, and secondary labeling was performed on ice for 30 min using PBSA with 1:100 dilution of goat anti-chicken PE (Santa Cruz) and mouse anti-HIS Hilyte Fluor 488 (Anaspec). Then samples were washed and analyzed by flow cytometry using Accuri (BD Biosciences). Samples were analyzed on BD Bioscience software, and data were analyzed using FlowJo software. Kd values were determined by fitting to a four-parameter sigmoidal curve. Error bars represent the standard deviation of triplicate experiments.

wild-type CNTFR-HIS [2] = target: T1, wild-type CNTFR-HIS; experiment: flow cytometry, yeast-displayed CLCF1 construct, soluble CNTFR-HIS titrated, anti-HIS Hilyte Fluor 488 detection
Description: as §1, §2

wild-type CNTFR-Fc [3] = target: T2, wild-type CNTFR-Fc (human, UniProt P26992 23-342); experiment: cell-free ELISA: HIS-tagged CLCF1 constructs with 2 nM CNTFR-Fc, captured by anti-HIS, detected by anti-mouse HRP; FRR-CLCF1 plus W169L
T2 construct: also called wtCNTFR-Fc; not shown: Fc domain; captured with anti-mouse Fc antibody
T2 sequence: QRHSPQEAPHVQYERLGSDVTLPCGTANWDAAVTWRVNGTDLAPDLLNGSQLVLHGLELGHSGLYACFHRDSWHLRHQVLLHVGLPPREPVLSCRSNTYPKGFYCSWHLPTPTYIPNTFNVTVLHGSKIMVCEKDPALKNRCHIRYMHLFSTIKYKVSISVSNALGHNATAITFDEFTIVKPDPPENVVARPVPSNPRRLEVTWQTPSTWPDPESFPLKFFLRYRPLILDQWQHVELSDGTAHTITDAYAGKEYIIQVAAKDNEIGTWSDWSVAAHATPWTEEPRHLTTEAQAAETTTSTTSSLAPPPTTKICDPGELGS
Description: (§3) 96-well plates were coated with 10 μg/mL of anti-HIS antibody overnight and blocked with 5% milk for 1 h. The plates were then washed twice with BPBS. Different concentrations of soluble constructs of HIS-tagged CLCF1 variants were incubated with 2 nM CNTFR-Fc in BPBS for 12 h at room temperature. The mixture was then added to 96-well plates coated with anti-HIS antibody for 1 h followed by washing with BPBS twice. Subsequently, the wells were incubated with 1:1000 diluted HRP conjugated anti-mouse antibody for 1 h at room temperature then washed four times with PBS. 1-Step Ultra TMB ELISA (Thermo Fisher Scientific) was used for the readout detected using a plate reader (Tecan).

wild-type CNTFR-Fc [4] = target: T2, wild-type CNTFR-Fc; experiment: cell-free ELISA: HIS-tagged CLCF1 constructs with 2 nM CNTFR-Fc, captured by anti-HIS, detected by anti-mouse HRP; FRR-CLCF1 plus K180R
Text: (§4) This was subsequently confirmed using a cell-free ELISA method. […] Unexpectedly, Y22C, W169L, and K180R decreased binding for gp130 with the combined mutations leading to the lowest binding while the mutations led to increased LIFR binding through increased CNTFR binding (FIG. 18). Because reduced binding interaction with beta receptors is desirable for antagonizing activation of CNTFR-CLCF1 mediated pathways, the clone with all six mutations, which was named sfCLCF1 (shuffled CLCF1) was selected for further studies.
as §3

wild-type CNTFR-Fc [5] = target: T2, wild-type CNTFR-Fc; experiment: assay not given; the FRR-CLCF1 and sfCLCF1 values in it equal those of FIG. 17 B (cell-free ELISA with 2 nM CNTFR-Fc)
wild-type CNTFR-Fc [6] = target: T2, wild-type CNTFR-Fc; experiment: cell-free ELISA: HIS-tagged CLCF1 constructs with 2 nM CNTFR-Fc, captured by anti-HIS, detected by anti-mouse HRP; FRR-CLCF1 plus Y22C
Description: as §3

wild-type CNTFR-Fc [7] = target: T2, wild-type CNTFR-Fc; experiment: cell-free ELISA: HIS-tagged CLCF1 constructs with 2 nM CNTFR-Fc, captured by anti-HIS, detected by anti-mouse HRP; all six mutations combined (sfCLCF1)
Text: as §4, §3

wild-type CNTFR-Fc [8] = target: T2, wild-type CNTFR-Fc; experiment: cell-free ELISA, HIS-tagged soluble CLCF1 titrated against 2 nM CNTFR-Fc, anti-HIS capture, HRP anti-mouse detection
Description: as §3

wild-type CNTFR-Fc [9] = target: T2, wild-type CNTFR-Fc; experiment: cell-free ELISA, HIS-tagged soluble CLCF1 titrated against 2 nM CNTFR-Fc
Description: as §3

wild-type CNTFR-Fc [10] = target: T2, wild-type CNTFR-Fc; experiment: sandwich ELISA: soluble CLCF1 incubated with CNTFR-Fc, captured by anti-mouse Fc, detected by anti-CLCF1; sandwich ELISA, anti-mouse Fc capture, anti-CLCF1 detection
Description: (§5) The CLCF1 variants isolated from screening were cloned into the pET28b bacterial expression plasmid and expressed and purified. […] A sandwich ELISA was performed using an anti-mouse Fc antibody as a capturing agent for wtCNTFR-Fc, followed by an anti-CLCF1 antibody as a detection agent for the bound complex. […] ELISA was also used to measure binding interactions with the gp130 and LIFR beta receptors.
(§6) To measure the solution-phase binding interaction between the CLCF1 constructs and CNTFR, different concentrations of soluble, recombinant CLCF1 variants and wtCLCF1 were incubated with 2 nM CNTFR-Fc in BPBS for 12 h at room temperature. The mixture was then added to 96-well plates coated with anti-mouse-Fc antibody for 1 h followed by washing with BPBS twice. Subsequently, the wells were incubated with 1:1000 diluted anti-CLCF1 rabbit antibody for 2 h at room temperature then washed four times with BPBS. The wells were incubated with a 1:1000 diluted HRP conjugated anti-rabbit antibody for 2 h at room temperature, and washed four times with BPBS. 1-Step Ultra TMB ELISA was used for the readout, which was measured using a plate reader (Tecan).

wild-type CNTFR-Fc [11] = target: T2, wild-type CNTFR-Fc; experiment: cell-free ELISA: HIS-tagged CLCF1 constructs with 2 nM CNTFR-Fc, captured by anti-HIS, detected by anti-mouse HRP; FRR-CLCF1 parent, no added mutation
Description: as §3

wild-type CNTFR-Fc [12] = target: T2, wild-type CNTFR-Fc; experiment: sandwich ELISA, soluble CLCF1 titrated against 2 nM CNTFR-Fc, anti-mouse-Fc capture, anti-CLCF1 detection
Description: as §5, §6

wild-type CNTFR-Fc [13] = target: T2, wild-type CNTFR-Fc; experiment: sandwich ELISA, soluble CLCF1 titrated against 2 nM CNTFR-Fc, apparent Kd
Description: as §5, §6

B1: v3 (ligand)
CLCF1 variant displayed on yeast as Aga2p fusion with c-myc tag: LNRTGDPGPGPSIQKTYDLTRYLEHQLRSLAGTYLNYLGPPFNEPDFNPPRLGAETLPRATVDLEVWRSLNDKLRLTQNYEAYSHLLCYLRGLNRRAATAELRRSLAHFCTSLQGLLGSIAGVMAALGYPLPQPLPGTEPTWTPGPARSDFLQKMDDFWLLKELQTWLWRSAKDFNRLKKKMQPPAAAVTLHLGAHGF
Kd (wild-type CNTFR-HIS [1]): 4.2 nM | EC50 (read off the curve) (wild-type CNTFR-HIS [2]): ~3 nM

B2: recombinant soluble FRR-CLCF1 with W169L (ligand)
chain: LNRTGDPGPGPSIQKTYDLTRYLEHQLRSLAGTYLNYLGPPFNEPDFNPPRLGAETLPRATVDLEVWRSLNDKLRLTQNYEAYSHFLCYLRGLNRRAATAELRRSLAHFCTSLQGLLGSIAGVMAALGYPLPQPLPGTEPTWTPGPARSDFLQKMDDFWLLKELQTWLLRSAKDFNRLKKKMQPPAAAVTLHLGAHGF
notes: Read as FRR-CLCF1 plus W169L; HIS-tagged in the cell-free assay
Kd (wild-type CNTFR-Fc [3]): 0.64 nM

B4: enCLCF1 (engineered CLCF1; Y22C, L86F, Q96R, H148R, F151A, K154A, W169L, K180R) (ligand)
chain: LNRTGDPGPGPSIQKTYDLTRCLEHQLRSLAGTYLNYLGPPFNEPDFNPPRLGAETLPRATVDLEVWRSLNDKLRLTQNYEAYSHFLCYLRGLNRRAATAELRRSLAHFCTSLQGLLGSIAGVMAALGYPLPQPLPGTEPTWTPGPARSDALQAMDDFWLLKELQTWLLRSAKDFNRLKRKMQPPAAAVTLHLGAHGF
notes: That change is not in the list of mutations; also called sfAA-CLCF1
Kd (wild-type CNTFR-Fc [5]): 0.12 nM

B5: recombinant soluble FRR-CLCF1 with Y22C (ligand)
chain: LNRTGDPGPGPSIQKTYDLTRCLEHQLRSLAGTYLNYLGPPFNEPDFNPPRLGAETLPRATVDLEVWRSLNDKLRLTQNYEAYSHFLCYLRGLNRRAATAELRRSLAHFCTSLQGLLGSIAGVMAALGYPLPQPLPGTEPTWTPGPARSDFLQKMDDFWLLKELQTWLWRSAKDFNRLKKKMQPPAAAVTLHLGAHGF
notes: HIS-tagged in the cell-free assay
Kd (wild-type CNTFR-Fc [6]): 0.464 nM

B7: recombinant soluble sfCLCF1 (shuffled CLCF1; Y22C, L86F, Q96R, H148R, W169L, K180R) (ligand)
chain: LNRTGDPGPGPSIQKTYDLTRCLEHQLRSLAGTYLNYLGPPFNEPDFNPPRLGAETLPRATVDLEVWRSLNDKLRLTQNYEAYSHFLCYLRGLNRRAATAELRRSLAHFCTSLQGLLGSIAGVMAALGYPLPQPLPGTEPTWTPGPARSDFLQKMDDFWLLKELQTWLLRSAKDFNRLKRKMQPPAAAVTLHLGAHGF
notes: HIS-tagged in the cell-free assay; also called the clone with all 6 mutations; a variant with all of the mutations combined
Kd (wild-type CNTFR-Fc [7]): 0.115 nM | EC50 (read off the curve) (wild-type CNTFR-Fc [8]): ~0.2 nM

B8: v4 (ligand)
soluble CLCF1 variant: LNRTGDPGPGPSIQKTYDLTRYLEHQLRSLAGTYLNYLGPPFNEPDFNPPRLGAETLPRATVDLEVWRSLNDKLRLTQNYEAYSHFLCYLRGLNRRAATAELRRSLAHFCTSLQGLLGSIAGVMAALGYPLPQPLPGTEPTWTPGPARSDFLQKMDDFWLLKELQTWLLRSAKDFNRLKRKMQPPAAAVTLHLGAHGF
notes: the text prints no Kd for it
Kd (wild-type CNTFR-Fc [9]): 0.2 nM | EC50 (read off the curve) (wild-type CNTFR-Fc [8]): ~0.2 nM

Further lines, results first:

Kd (wild-type CNTFR-Fc [4]): 0.559 nM
B3: recombinant soluble FRR-CLCF1 with K180R (ligand)
chain: LNRTGDPGPGPSIQKTYDLTRYLEHQLRSLAGTYLNYLGPPFNEPDFNPPRLGAETLPRATVDLEVWRSLNDKLRLTQNYEAYSHFLCYLRGLNRRAATAELRRSLAHFCTSLQGLLGSIAGVMAALGYPLPQPLPGTEPTWTPGPARSDFLQKMDDFWLLKELQTWLWRSAKDFNRLKRKMQPPAAAVTLHLGAHGF
notes: Read as FRR-CLCF1 plus K180R; HIS-tagged in the cell-free assay

Kd (wild-type CNTFR-Fc [5]): 0.93 nM
B6: FRRAA-CLCF1 (ligand)
chain: LNRTGDPGPGPSIQKTYDLTRYLEHQLRSLAGTYLNYLGPPFNEPDFNPPRLGAETLPRATVDLEVWRSLNDKLRLTQNYEAYSHFLCYLRGLNRRAATAELRRSLAHFCTSLQGLLGSIAGVMAALGYPLPQPLPGTEPTWTPGPARSDALQAMDDFWLLKELQTWLWRSAKDFNRLKKKMQPPAAAVTLHLGAHGF
notes: It is read as FRR-CLCF1 plus the LIFR-reducing alanine substitutions F151A and K154A

Kd (wild-type CNTFR-Fc [10]): ~0.83 nM | EC50 (read off the curve) (wild-type CNTFR-Fc [8]): ~1 nM | Kd (wild-type CNTFR-Fc [11]): 0.869 nM | EC50 (read off the curve) (wild-type CNTFR-Fc [12]): ~1 nM | Kd (wild-type CNTFR-Fc [13]): 0.86 nM
B9: recombinant soluble FRR-CLCF1 (L86F, Q96R, H148R) (ligand)
chain: LNRTGDPGPGPSIQKTYDLTRYLEHQLRSLAGTYLNYLGPPFNEPDFNPPRLGAETLPRATVDLEVWRSLNDKLRLTQNYEAYSHFLCYLRGLNRRAATAELRRSLAHFCTSLQGLLGSIAGVMAALGYPLPQPLPGTEPTWTPGPARSDFLQKMDDFWLLKELQTWLWRSAKDFNRLKKKMQPPAAAVTLHLGAHGF
notes: Expressed in E. coli from pET28b
